Measured values from patent US20110250130A1 (AbbVie / Abbott, published 2011).

B1: AB248 (antibody, V domains shown)
VH: EVQLQESGPGLVKPSETLSLTCTVSGFSLSDYGVNWIRQPPGKGLEWIGMIWGDGSTDYDSTLKSRVTISKDTSKNQFSLKLSSVTAADTAVYYCAREWHHGPVAYWGQGTLVTVSS
VL: DIQMTQSPSSLSASVGDRVTITCKASQAVSSAVAWYQQKPGKAPKLLIYWASTRHTGVPSRFSGSGSGTDFTLTISSLQPEDFATYYCQQHYSTPFTFGQGTKLEIK
notes: also called hMAK195VH.1b / hMAK195VL.1
B2: AB260 (antibody, V domains shown)
VH: EVQLVESGGGLVQPGGSLRLSCAASGFTLSDYGVNWVRQAPGKGLEWVSMIWGDGSTDYDSTLKSRFTISKDNSKNTLYLQMNSLRAEDTAVYYCAREWHHGPVAYWGQGTLVTVSS
VL: DIQMTQSPSSLSASVGDRVTITCKASQAVSSAVAWYQQKPGKAPKLLIYWASTRHTGVPSRFSGSGSGTDFTLTISSLQPEDFATYYCQQHYSTPFTFGQGTKLEIK
notes: also called hMAK195VH.2b / hMAK195VL.1
B3: AB250 (antibody, V domains shown)
VH: EVQLQESGPGLVKPSETLSLTCTVSGFSLSDYGVNWIRQPPGKGLEWIGMIWGDGSTDYDSTLKSRVTISKDTSKNQFSLKLSSVTAADTAVYYCAREWHHGPVAYWGQGTLVTVSS
VL: EIVMTQSPATLSLSPGERATLSCKASQAVSSAVAWYQQKPGQAPRLLIYWASTRHTGIPARFSGSGSGTDFTLTISSLQPEDFAVYYCQQHYSTPFTFGQGTKLEIK
notes: also called hMAK195VH.1b / hMAK195VL.2
B4: AB253 (antibody, V domains shown)
VH: EVQLVESGGGLVQPGGSLRLSCAASGFTFSDYGVNWVRQAPGKGLEWVSMIWGDGSTDYDSTLKSRFTISRDNSKNTLYLQMNSLRAEDTAVYYCAREWHHGPVAYWGQGTLVTVSS
VL: DIQMTQSPSSLSASVGDRVTITCKASQAVSSAVAWYQQKPGKSPKLLIYWASTRHTGVPSRFSGSGSGTDFTLTISSLQPEDFATYYCQQHYSTPFTFGQGTKLEIK
notes: also called hMAK195VH.2 / hMAK195VL.1a
B5: AB244 (antibody, V domains shown)
VH: EVQLQESGPGLVKPSETLSLTCTVSGFSLSDYGVNWVRQPPGKGLEWLGMIWGDGSTDYDSTLKSRLTISKDNSKSQISLKLSSVTAADTAVYYCAREWHHGPVAYWGQGTLVTVSS
VL: DIQMTQSPSSLSASVGDRVTITCKASQAVSSAVAWYQQKPGKAPKLLIYWASTRHTGVPSRFSGSGSGTDFTLTISSLQPEDFATYYCQQHYSTPFTFGQGTKLEIK
notes: also called hMAK195VH.1a / hMAK195VL.1
B6: AB242 (antibody, V domains shown)
VH: EVQLQESGPGLVKPSETLSLTCTVSGGSISDYGVNWIRQPPGKGLEWIGMIWGDGSTDYDSTLKSRVTISVDTSKNQFSLKLSSVTAADTAVYYCAREWHHGPVAYWGQGTLVTVSS
VL: EIVMTQSPATLSLSPGERATLSCKASQAVSSAVAWYQQKPGQAPRLLIYWASTRHTGIPARFSGSGSGTDFTLTISSLQPEDFAVYYCQQHYSTPFTFGQGTKLEIK
notes: also called hMAK195VH.1 / hMAK195VL.2
B7: AB246 (antibody, V domains shown)
VH: EVQLQESGPGLVKPSETLSLTCTVSGFSLSDYGVNWVRQPPGKGLEWLGMIWGDGSTDYDSTLKSRLTISKDNSKSQISLKLSSVTAADTAVYYCAREWHHGPVAYWGQGTLVTVSS
VL: EIVMTQSPATLSLSPGERATLSCKASQAVSSAVAWYQQKPGQAPRLLIYWASTRHTGIPARFSGSGSGTDFTLTISSLQPEDFAVYYCQQHYSTPFTFGQGTKLEIK
notes: also called hMAK195VH.1a / hMAK195VL.2
B8: AB245 (antibody, V domains shown)
VH: EVQLQESGPGLVKPSETLSLTCTVSGFSLSDYGVNWVRQPPGKGLEWLGMIWGDGSTDYDSTLKSRLTISKDNSKSQISLKLSSVTAADTAVYYCAREWHHGPVAYWGQGTLVTVSS
VL: DIQMTQSPSSLSASVGDRVTITCKASQAVSSAVAWYQQKPGKSPKLLIYWASTRHTGVPSRFSGSGSGTDFTLTISSLQPEDFATYYCQQHYSTPFTFGQGTKLEIK
notes: also called hMAK195VH.1a / hMAK195VL.1a
B9: AB240 (antibody, V domains shown)
VH: EVQLQESGPGLVKPSETLSLTCTVSGGSISDYGVNWIRQPPGKGLEWIGMIWGDGSTDYDSTLKSRVTISVDTSKNQFSLKLSSVTAADTAVYYCAREWHHGPVAYWGQGTLVTVSS
VL: DIQMTQSPSSLSASVGDRVTITCKASQAVSSAVAWYQQKPGKAPKLLIYWASTRHTGVPSRFSGSGSGTDFTLTISSLQPEDFATYYCQQHYSTPFTFGQGTKLEIK
notes: also called hMAK195VH.1 / hMAK195VL.1
B10: AB243 (antibody, V domains shown)
VH: EVQLQESGPGLVKPSETLSLTCTVSGGSISDYGVNWIRQPPGKGLEWIGMIWGDGSTDYDSTLKSRVTISVDTSKNQFSLKLSSVTAADTAVYYCAREWHHGPVAYWGQGTLVTVSS
VL: EIVMTQSPATLSLSPGERATLSCKASQAVSSAVAWYQQKPGQSPRLLIYWASTRHTGVPARFSGSGSGTDFTLTISSLQPEDFAVYYCQQHYSTPFTFGQGTKLEIK
notes: also called hMAK195VH.1 / hMAK195VL.2a
B11: AB249 (antibody, V domains shown)
VH: EVQLQESGPGLVKPSETLSLTCTVSGFSLSDYGVNWIRQPPGKGLEWIGMIWGDGSTDYDSTLKSRVTISKDTSKNQFSLKLSSVTAADTAVYYCAREWHHGPVAYWGQGTLVTVSS
VL: DIQMTQSPSSLSASVGDRVTITCKASQAVSSAVAWYQQKPGKSPKLLIYWASTRHTGVPSRFSGSGSGTDFTLTISSLQPEDFATYYCQQHYSTPFTFGQGTKLEIK
notes: also called A3249; hMAK195VH.1b / hMAK195VL.1a
B12: AB251 (antibody, V domains shown)
VH: EVQLQESGPGLVKPSETLSLTCTVSGFSLSDYGVNWIRQPPGKGLEWIGMIWGDGSTDYDSTLKSRVTISKDTSKNQFSLKLSSVTAADTAVYYCAREWHHGPVAYWGQGTLVTVSS
VL: EIVMTQSPATLSLSPGERATLSCKASQAVSSAVAWYQQKPGQSPRLLIYWASTRHTGVPARFSGSGSGTDFTLTISSLQPEDFAVYYCQQHYSTPFTFGQGTKLEIK
notes: also called hMAK195VH.1b / hMAK195VL.2a
B13: AB252 (antibody, V domains shown)
VH: EVQLVESGGGLVQPGGSLRLSCAASGFTFSDYGVNWVRQAPGKGLEWVSMIWGDGSTDYDSTLKSRFTISRDNSKNTLYLQMNSLRAEDTAVYYCAREWHHGPVAYWGQGTLVTVSS
VL: DIQMTQSPSSLSASVGDRVTITCKASQAVSSAVAWYQQKPGKAPKLLIYWASTRHTGVPSRFSGSGSGTDFTLTISSLQPEDFATYYCQQHYSTPFTFGQGTKLEIK
notes: also called hMAK195VH.2 / hMAK195VL.1
B14: AB247 (antibody, V domains shown)
VH: EVQLQESGPGLVKPSETLSLTCTVSGFSLSDYGVNWVRQPPGKGLEWLGMIWGDGSTDYDSTLKSRLTISKDNSKSQISLKLSSVTAADTAVYYCAREWHHGPVAYWGQGTLVTVSS
VL: EIVMTQSPATLSLSPGERATLSCKASQAVSSAVAWYQQKPGQSPRLLIYWASTRHTGVPARFSGSGSGTDFTLTISSLQPEDFAVYYCQQHYSTPFTFGQGTKLEIK
notes: also called hMAK195VH.1a / hMAK195VL.2a
B15: AB241 (antibody, V domains shown)
VH: EVQLQESGPGLVKPSETLSLTCTVSGGSISDYGVNWIRQPPGKGLEWIGMIWGDGSTDYDSTLKSRVTISVDTSKNQFSLKLSSVTAADTAVYYCAREWHHGPVAYWGQGTLVTVSS
VL: DIQMTQSPSSLSASVGDRVTITCKASQAVSSAVAWYQQKPGKSPKLLIYWASTRHTGVPSRFSGSGSGTDFTLTISSLQPEDFATYYCQQHYSTPFTFGQGTKLEIK
notes: also called hMAK195VH.1 / hMAK195VL.1a

Tests used:
[1] = molecular target: T1, Recombinant Human TNF-α/TNFSF1A (human, UniProt P01375 77-233); test: SPR (Biacore), antibody captured, TNF-α in solution
T1 construct: Bought reagent (R&D Systems 210-TA); also called hTNF-α; huTNF-α
Method: The BIACORE assay (Biacore, Inc. Piscataway, N.J.) determines the affinity of antibodies with kinetic measurements of on-rate and off-rate constants. Binding of antibodies to a target antigen (for example, a purified recombinant target antigen) is determined by surface plasmon resonance-based measurements with a Biacore® 1000 or 3000 instrument (Biacore® AB, Uppsala, Sweden) using running HBS-EP (10 mM HEPES [pH 7.4], 150 mM NaCl, 3 mM EDTA, and 0.005% surfactant P20) at 25° C. All chemicals are obtained from Biacore® AB (Uppsala, Sweden) or otherwise from a different source as described in the text. For example, approximately 5000 RU of goat anti-mouse IgG, (Fcγ), fragment specific polyclonal antibody (Pierce Biotechnology Inc, Rockford, Ill., US) diluted in 10 mM sodium acetate (pH 4.5) is directly immobilized across a CM5 research grade biosensor chip using a standard amine coupling kit according to manufacturer's instructions and procedures at 25 μg/ml. Unreacted moieties on the biosensor surface are blocked with ethanolamine. Modified carboxymethyl dextran surface in flowcell 2 and 4 is used as a reaction surface. Unmodified carboxymethyl dextran without goat anti-mouse IgG in flow cell 1 and 3 is used as the reference surface. For kinetic analysis, rate equations derived from the 1:1 Langmuir binding model are fitted simultaneously to association and dissociation phases of all eight injections (using global fit analysis) with the use of Biaevaluation 4.0.1 software. Purified antibodies are diluted in HEPES-buffered saline for capture across goat anti-mouse IgG specific reaction surfaces. Antibodies to be captured as a ligand (25 μg/ml) are injected over reaction matrices at a flow rate of 5 μl/minute. The association and dissociation rate constants, kₒₙ (M⁻¹s⁻¹) and koff (s⁻¹), are determined under a continuous flow rate of 25 μl/minute. Rate constants are derived by making kinetic binding measurements at different antigen concentrations ranging from 10-200 nM. The equilibrium dissociation constant (M) of the reaction between antibodies and the target antigen is then calculated from the kinetic rate constants by the following formula: KD=koff/kₒₙ. Binding is recorded as a function of time and kinetic rate constants are calculated. In this assay, on-rates as fast as 10⁶ M⁻¹s⁻¹ and off-rates as slow as 10⁻⁶ s⁻¹ can be measured.

[2] = molecular target: T1, Recombinant Human TNF-α/TNFSF1A; test: cell-based or functional assay

T1 sequence (P01375 77-233 limits assumed): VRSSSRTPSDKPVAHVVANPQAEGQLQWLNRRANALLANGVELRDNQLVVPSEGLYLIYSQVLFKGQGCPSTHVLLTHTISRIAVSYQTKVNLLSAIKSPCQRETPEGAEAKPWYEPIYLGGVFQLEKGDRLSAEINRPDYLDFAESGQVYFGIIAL

| Binder | Kd [1] | koff [1] | kon [1] | TNF-α neutralization assay IC50 (nM), L929 cells [2] |
| --- | --- | --- | --- | --- |
| B1 | 0.174 nM | 0.000316 s⁻¹ | 1.82e+06 M⁻¹ s⁻¹ | 0.213 nM |
| B2 | 0.101 nM | 0.00023 s⁻¹ | 2.27e+06 M⁻¹ s⁻¹ | 0.093 nM |
| B3 | 0.179 nM | 0.000356 s⁻¹ | 2e+06 M⁻¹ s⁻¹ | 0.301 nM |
| B4 | 0.0733 nM | 0.000221 s⁻¹ | 3.02e+06 M⁻¹ s⁻¹ | 0.279 nM |
| B5 | 0.0891 nM | 0.000335 s⁻¹ | 3.8e+06 M⁻¹ s⁻¹ | 0.155 nM |
| B6 | 0.796 nM | 0.00142 s⁻¹ | 1.79e+06 M⁻¹ s⁻¹ | 25.1 nM |
| B7 | 0.0458 nM | 0.000119 s⁻¹ | 2.61e+06 M⁻¹ s⁻¹ | 0.099 nM |
| B8 | 0.0994 nM | 0.00033 s⁻¹ | 3.32e+06 M⁻¹ s⁻¹ | 0.072 nM |
| B9 | 1.4 nM | 0.00228 s⁻¹ | 1.64e+06 M⁻¹ s⁻¹ | 14.2 nM |
| B10 | 1.62 nM | 0.0027 s⁻¹ | 1.72e+06 M⁻¹ s⁻¹ | 50.7 nM |
| B11 | 0.156 nM | 0.000315 s⁻¹ | 2.04e+06 M⁻¹ s⁻¹ | 0.245 nM |
| B12 | 0.25 nM | 0.000425 s⁻¹ | 1.71e+06 M⁻¹ s⁻¹ | 0.35 nM |
| B13 | 0.0866 nM | 0.000252 s⁻¹ | 2.92e+06 M⁻¹ s⁻¹ | 0.222 nM |
| B14 | 0.0996 nM | 0.00026 s⁻¹ | 2.62e+06 M⁻¹ s⁻¹ | 0.186 nM |
| B15 | 0.573 nM | 0.0013 s⁻¹ | 2.27e+06 M⁻¹ s⁻¹ | 5.33 nM |
